Laboratory results from patent publication US20250283886.

Experiments:
[1] = test system: […]{LYS(N3)} peptide-linker conjugate, PEG4 linker (Table 6 entry 11)
[2] = test system: […]{LYS(N3)} peptide-linker conjugate, oligo linker (Table 6 entry 8)
[3] = test system: […]{LYS(N3)} peptide-linker conjugate, oligo linker (Table 6 entry 9)
[4] = test system: […]{LYS(N3)} peptide-linker conjugate, oligo linker (Table 6 entry 10)

## Y. pestis proline iminopeptidase
[1]
  Cleaved by PIP: Yes
[2]
  Cleaved by PIP: Yes
[3]
  Cleaved by PIP: Yes
[4]
  Cleaved by PIP: No
